Assay [1] deals with His10-mTfR1 (SEQ ID NO:53) (mouse) (UniProt Q62351). Put plainly: indirect ELISA, His10-mTfR1 captured on Ni-coated plate, hybridoma supernatant. (In general: ELISA stands for enzyme-linked immunosorbent assay.)
Assay [2] concerns the target truncated hTfR1 of SEQ ID NO:89 (human) (UniProt P02786). Put plainly: SPR, hTfR1 on CM5, bispecific molecule with scFv module injected. A general note: In SPR one partner is held on a chip, and binding of the other changes the refractive index at the surface.

The term Kd denotes the constant that tells how readily two partners part at equilibrium. A lower Kd goes with tighter binding.

truncated hTfR1 of SEQ ID NO:89 (human), sequence (P02786 other isoform, or with tags, fused parts or gaps limits assumed): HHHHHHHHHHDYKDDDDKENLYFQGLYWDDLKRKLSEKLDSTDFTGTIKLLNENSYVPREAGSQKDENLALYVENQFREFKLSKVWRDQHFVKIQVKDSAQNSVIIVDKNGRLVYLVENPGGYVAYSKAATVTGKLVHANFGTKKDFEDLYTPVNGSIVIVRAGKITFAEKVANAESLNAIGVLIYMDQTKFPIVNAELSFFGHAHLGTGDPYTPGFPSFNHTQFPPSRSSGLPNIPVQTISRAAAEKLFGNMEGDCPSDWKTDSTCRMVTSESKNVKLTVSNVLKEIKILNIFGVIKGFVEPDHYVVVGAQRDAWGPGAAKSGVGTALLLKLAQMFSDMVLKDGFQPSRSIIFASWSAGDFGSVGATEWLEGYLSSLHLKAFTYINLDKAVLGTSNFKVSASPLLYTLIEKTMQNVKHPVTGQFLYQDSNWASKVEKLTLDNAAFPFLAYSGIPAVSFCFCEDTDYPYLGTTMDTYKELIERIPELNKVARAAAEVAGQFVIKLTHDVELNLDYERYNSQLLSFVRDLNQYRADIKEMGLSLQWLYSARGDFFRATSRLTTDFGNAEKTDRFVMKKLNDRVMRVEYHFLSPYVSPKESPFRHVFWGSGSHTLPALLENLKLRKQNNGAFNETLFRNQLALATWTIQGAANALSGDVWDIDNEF
His10-mTfR1 (SEQ ID NO:53) (mouse), sequence (Q62351 other isoform, or with tags, fused parts or gaps limits assumed): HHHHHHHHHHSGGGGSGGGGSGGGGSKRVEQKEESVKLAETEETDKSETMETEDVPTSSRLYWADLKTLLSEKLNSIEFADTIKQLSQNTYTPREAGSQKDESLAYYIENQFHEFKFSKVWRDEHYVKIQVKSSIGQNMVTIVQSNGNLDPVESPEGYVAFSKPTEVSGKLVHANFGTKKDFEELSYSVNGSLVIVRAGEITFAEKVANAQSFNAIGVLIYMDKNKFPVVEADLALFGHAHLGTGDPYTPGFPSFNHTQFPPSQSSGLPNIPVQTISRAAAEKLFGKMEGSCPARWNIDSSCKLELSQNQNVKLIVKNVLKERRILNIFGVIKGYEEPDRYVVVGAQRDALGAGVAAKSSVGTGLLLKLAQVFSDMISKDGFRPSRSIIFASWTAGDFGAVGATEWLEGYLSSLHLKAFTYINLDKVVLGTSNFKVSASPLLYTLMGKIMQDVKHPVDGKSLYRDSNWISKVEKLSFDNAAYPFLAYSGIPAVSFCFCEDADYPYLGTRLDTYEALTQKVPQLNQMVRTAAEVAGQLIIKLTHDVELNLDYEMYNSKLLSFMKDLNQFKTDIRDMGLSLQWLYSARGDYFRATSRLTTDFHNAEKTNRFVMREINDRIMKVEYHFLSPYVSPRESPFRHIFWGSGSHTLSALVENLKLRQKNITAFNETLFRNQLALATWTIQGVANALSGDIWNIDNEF

B1: mouse monoclonal antibody 26D3 (antibody, mouse IgG2a, V domains shown)
VH: EVQLQQFGVELVKPGASVKISCKASGYIFTDYNMDWVKQSHGKSLEWIGDINPDYDTTSYNEKFKGKATLTVDKSSSTAYMELRSLTSEDTAVYYCARGGYSGSSYYHPMDYWGQGTSVTVSS
VL: DIVMSQSPSSLAVSVGEKITMSCKSSQSLLYSTNQKNYLAWYQQKPGQSPELLIYWASTRESGVPDRFTGSGSGTDFTLTISNVRAEDLAVYYCQQYFIYPRTFGGGTKLEIK
In turn, B1 gave an OD450 (indirect ELISA) in assay [1] of over 0.2 OD.

B2: bispecific binding molecule (format of WO2022/258841) with h26D3 scFv module (bispecific antibody, part only; not given: Cargo antibody chains, linkers, domain order, V domains shown, not shown: another chain or arm of the molecule; large carriers; small tags and cut ends)
VH: EVQLVQSGAEVKKPGSSVKVSCKASGYIFTDYNMDWVRQAPGQGLEWIGDINPDYDTTSYNEKFKGRATLTVDKSTSTAYMELSSLRSEDTAVYYCARGGYSGSSYYHPMDYWGQGTLVTVSS
VL: DIQMTQSPSSVSASVGDRVTITCKSSQSLLYSTNQKNYLAWYQQKPGKAPKLLIYWASTRESGVPSRFSGSGSGTDFTLTISSLQPEDFATYYCQQYFIYPRTFGQGTKVEIK
In assay [2], B2 displayed a dissociation constant Kd of 10 nM.

B3: bispecific binding molecule (format of WO2022/258841) with h26D3 LC5 scFv module (bispecific antibody, part only; not given: cargo antibody chains, linkers, format, V domains shown, not shown: another chain or arm of the molecule; large carriers; small tags and cut ends)
VH: EVQLVQSGAEVKKPGSSVKVSCKASGYIFTDYNMDWVRQAPGQGLEWIGDINPDYDTTSYNEKFKGRATLTVDKSTSTAYMELSSLRSEDTAVYYCARGGYSGSSYYHPMDYWGQGTLVTVSS
VL: DIQMTQSPSSVSASVGDRVTITCKSSQSLLYSTNQKNYLAWYQQKPGKAPKLLIYWASTRESGVPSRFSGSGSGTDFTLTISSLQPEDFATYYCQQAFIYPRTFGQGTKVEIK
In assay [2], B3 yielded a Kd of 400 to 500 nM.

B4: bispecific binding molecule (format of WO2022/258841) with h26D3 LC1 scFv module (bispecific antibody, part only; not given: Cargo antibody chains, linkers, domain order, V domains shown, not shown: another chain or arm of the molecule; large carriers; small tags and cut ends)
VH: EVQLVQSGAEVKKPGSSVKVSCKASGYIFTDYNMDWVRQAPGQGLEWIGDINPDYDTTSYNEKFKGRATLTVDKSTSTAYMELSSLRSEDTAVYYCARGGYSGSSYYHPMDYWGQGTLVTVSS
VL: DIQMTQSPSSVSASVGDRVTITCKSSQSLLASTNQKNYLAWYQQKPGKAPKLLIYWASTRESGVPSRFSGSGSGTDFTLTISSLQPEDFATYYCQQYFIYPRTFGQGTKVEIK
As for B4, the equilibrium dissociation constant (Kd) in assay [2] was determined as 40 nM.

B5: bispecific binding molecule (format of WO2022/258841) with h26D3 HC6 scFv module (bispecific antibody, part only; not given: Cargo antibody chains, linkers, domain order, V domains shown, not shown: another chain or arm of the molecule; large carriers; small tags and cut ends)
VH: EVQLVQSGAEVKKPGSSVKVSCKASGYIFTDYNMDWVRQAPGQGLEWIGDINPDADTTSYNEKFKGRATLTVDKSTSTAYMELSSLRSEDTAVYYCARGGYSGSSYYHPMDYWGQGTLVTVSS
VL: DIQMTQSPSSVSASVGDRVTITCKSSQSLLYSTNQKNYLAWYQQKPGKAPKLLIYWASTRESGVPSRFSGSGSGTDFTLTISSLQPEDFATYYCQQYFIYPRTFGQGTKVEIK
In assay [2], B5 gave a dissociation constant Kd of 100 to 200 nM.

The values above are taken from patent publication US20260265396A1.
